Source: the supplement of paper PMC10567573

B1: PLAGL1 (parent)
chain: CKDFLCQFCAQRFGRKDHLTRHTK
B2: TIA1 (parent)
chain: TYECRCIGEEKEMWNFGEKYARF

Variants of: B1
Test: protein stability index of a GFP-peptide fusion (GPS, HEK-293T) (PSI 1-6); higher = more stable
Details: c terminus: a fixed tail appended
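Also: lentivirally expressed fusions sorted by FACS into six bins by GFP to DsRed ratio, PSI derived from sequencing read proportions per bin multiplied by bin number.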

Variant	protein stability index
CKDFLCQFCAQRFGRKDHLTRTTK [H22T]	2.57
CKDFLCQFCAQRFGRKDHLTRWTK [H22W]	2.52
CKDFLCQFCAQRFGRKDHLTRVTK [H22V]	2.81
CKDFLCQFCAQRFGRKDHLTRYTK [H22Y]	2.7
CKDFLCQFCAQRFGRKDHLTRHTD [K24D]	1.73
CKDFLCQFCAQRFGRKDHLTRHTT [K24T]	2.24
CKDFLCQFCAQRFGRKDHLTRHTR [K24R]	2.08
CKDFLCQFCAQRFGRKDHLTRHTL [K24L]	1.49
CKDFLCQFCAQRFGRKDHLTRHTH [K24H]	2.41
CKDFLCQFCAQRFGRKDHLTRHTC [K24C]	2.83
CKDFLCQFCAQRFGRKDHLTRHTV [K24V]	1.67
CKDFLCQFCAQRFGRKDHLTRHTP [K24P]	2.21
CKDFLCQFCAQRFGRKDHLTRHTA [K24A]	2.73
CKDFLCQFCAQRFGRKDHLTRHTG [K24G]	1.74
CKDFLCQFCAQRFGRKDHLTRHTY [K24Y]	1.56
CKDFLCQFCAQRFGRKDHLTRHTM [K24M]	1.74
CKDFLCQFCAQRFGRKDHLTRHTI [K24I]	2.08
CKDFLCQFCAQRFGRKDHLTRHTF [K24F]	2.4
CKDFLCQFCAQRFGRKDHLTRHTS [K24S]	2.02
CKDFLCQFCAQRFGRKDHLTRHTN [K24N]	1.9
CKDFLCQFCAQRFGRKDHLTRHTQ [K24Q]	2.25

Variant	protein stability index
CKDFLCQFCAQRFGRKDHLTRHTW [K24W]	2.03
CKDFLCQFCAQRFGRKDHLTRHTE [K24E]	2.3
CKDFLCQFCAQRFGRKDHLTRHVK [T23V]	1.87
CKDFLCQFCAQRFGRKDHLTRHDK [T23D]	2.81
CKDFLCQFCAQRFGRKDHLTRHGK [T23G]	2.15
CKDFLCQFCAQRFGRKDHLTRHWK [T23W]	1.51
CKDFLCQFCAQRFGRKDHLTRHMK [T23M]	2.04
CKDFLCQFCAQRFGRKDHLTRHQK [T23Q]	3.45
CKDFLCQFCAQRFGRKDHLTRHPK [T23P]	1.76
CKDFLCQFCAQRFGRKDHLTRHYK [T23Y]	1.77
CKDFLCQFCAQRFGRKDHLTRHSK [T23S]	2.38
CKDFLCQFCAQRFGRKDHLTRHKK [T23K]	2.44
CKDFLCQFCAQRFGRKDHLTRHEK [T23E]	1.68
CKDFLCQFCAQRFGRKDHLTRHFK [T23F]	2.23
CKDFLCQFCAQRFGRKDHLTRHCK [T23C]	2.17
CKDFLCQFCAQRFGRKDHLTRHRK [T23R]	1.95
CKDFLCQFCAQRFGRKDHLTRHAK [T23A]	2
CKDFLCQFCAQRFGRKDHLTRHLK [T23L]	1.62
CKDFLCQFCAQRFGRKDHLTRHIK [T23I]	2.4
CKDFLCQFCAQRFGRKDHLTRHNK [T23N]	1.81
CKDFLCQFCAQRFGRKDHLTRHHK [T23H]	2.02

Variants of: B2
Test: as above
Details: c terminus: native

Variant	protein stability index
TYECRCIGEEKEMHNFGEKYARF [W14H]	2.49
TYECRCIGEEKEMDNFGEKYARF [W14D]	2.61
TYECRCIGEEKEMLNFGEKYARF [W14L]	1.64
TYECRCIGEEKEMNNFGEKYARF [W14N]	2.1
TYECRCIGEEKEMTNFGEKYARF [W14T]	2.22
TYECRCIGEEKQMWNFGEKYARF [E12Q]	2.3
TYECRCIGEEKIMWNFGEKYARF [E12I]	1.39
TYECRCIGEEKMMWNFGEKYARF [E12M]	1.88
TYECRCIGEEKLMWNFGEKYARF [E12L]	2.33
TYECRCIGEEKTMWNFGEKYARF [E12T]	2.19
TYECRCIGEEKDMWNFGEKYARF [E12D]	1.91
TYECRCIGEEKHMWNFGEKYARF [E12H]	2.03
TYECRCIGEEKPMWNFGEKYARF [E12P]	2.35
CYECRCIGEEKEMWNFGEKYARF [T1C]	1.23
HYECRCIGEEKEMWNFGEKYARF [T1H]	2.31
WYECRCIGEEKEMWNFGEKYARF [T1W]	1.68
MYECRCIGEEKEMWNFGEKYARF [T1M]	3.02
RYECRCIGEEKEMWNFGEKYARF [T1R]	1.68
KYECRCIGEEKEMWNFGEKYARF [T1K]	1.83
TYECRCIIEEKEMWNFGEKYARF [G8I]	2.04
TYECRCIVEEKEMWNFGEKYARF [G8V]	2.65
TYECRCICEEKEMWNFGEKYARF [G8C]	1.6
TYECRCIREEKEMWNFGEKYARF [G8R]	3.32
TYECRCVGEEKEMWNFGEKYARF [I7V]	1.76
TYECRCMGEEKEMWNFGEKYARF [I7M]	1.72
TYECRCGGEEKEMWNFGEKYARF [I7G]	3

Variant	protein stability index
TYECRCQGEEKEMWNFGEKYARF [I7Q]	3.02
TYECRCEGEEKEMWNFGEKYARF [I7E]	3.42
TYECRCKGEEKEMWNFGEKYARF [I7K]	2.18
TIECRCIGEEKEMWNFGEKYARF [Y2I]	3.31
TWECRCIGEEKEMWNFGEKYARF [Y2W]	4.98
TCECRCIGEEKEMWNFGEKYARF [Y2C]	3.3
TTECRCIGEEKEMWNFGEKYARF [Y2T]	4.18
THECRCIGEEKEMWNFGEKYARF [Y2H]	2.44
TDECRCIGEEKEMWNFGEKYARF [Y2D]	4.27
TGECRCIGEEKEMWNFGEKYARF [Y2G]	4.38
TYECICIGEEKEMWNFGEKYARF [R5I]	2.8
TYECYCIGEEKEMWNFGEKYARF [R5Y]	1.35
TYECKCIGEEKEMWNFGEKYARF [R5K]	2.3
TYECQCIGEEKEMWNFGEKYARF [R5Q]	1.73
TYECWCIGEEKEMWNFGEKYARF [R5W]	1.98
TYECFCIGEEKEMWNFGEKYARF [R5F]	2.1
TYECTCIGEEKEMWNFGEKYARF [R5T]	2.31
TYECDCIGEEKEMWNFGEKYARF [R5D]	3.07
TYECRCIGDEKEMWNFGEKYARF [E9D]	2.28
TYECRCIGPEKEMWNFGEKYARF [E9P]	1.82
TYECRCIGWEKEMWNFGEKYARF [E9W]	1.74
TYECRCIGLEKEMWNFGEKYARF [E9L]	3.02
TYECRCIGFEKEMWNFGEKYARF [E9F]	1.81
TYECRCIGEEKEMWNFSEKYARF [G17S]	1.72
TYECRCIGEEKEMWNFTEKYARF [G17T]	2.89
TYECRCIGEEKEMWNFCEKYARF [G17C]	1.75

Variant	protein stability index
TYECRCIGEEKEMWNFAEKYARF [G17A]	2.27
TYECRCIGEEKEMWNFYEKYARF [G17Y]	1.7
TYECRCIGEEKEMWNFNEKYARF [G17N]	3.29
TYECRCIGEEKEMWNFDEKYARF [G17D]	3.11
TYECRCIGEEKEMWNFMEKYARF [G17M]	1.86
TYEVRCIGEEKEMWNFGEKYARF [C4V]	1.88
TYEIRCIGEEKEMWNFGEKYARF [C4I]	2.31
TYEKRCIGEEKEMWNFGEKYARF [C4K]	3.16
TYECRCIGEEKEMWNFGEPYARF [K19P]	3.04
TYECRCIGEEKEMWNFGESYARF [K19S]	2.27
TYECRCIGEEKEMWNFGEAYARF [K19A]	1.65
TYECRCIGEEKEMWNFGEIYARF [K19I]	1.62
TYECRCIGEEKEMWNFGERYARF [K19R]	2.44
TYECRCIGEEKEMWNFGEGYARF [K19G]	2.51
TYECRCIGEEKEMWNFGEDYARF [K19D]	3.32
TYECRWIGEEKEMWNFGEKYARF [C6W]	1.53
TYECRAIGEEKEMWNFGEKYARF [C6A]	2.92
TYECRKIGEEKEMWNFGEKYARF [C6K]	3.64
TYECRNIGEEKEMWNFGEKYARF [C6N]	3.44
TYECRDIGEEKEMWNFGEKYARF [C6D]	4.2
TYECREIGEEKEMWNFGEKYARF [C6E]	4.37
TYECRRIGEEKEMWNFGEKYARF [C6R]	3.38
TYECRGIGEEKEMWNFGEKYARF [C6G]	3.94
TYECRCIGEEKEMWPFGEKYARF [N15P]	2.25
TYECRCIGEEKEMWDFGEKYARF [N15D]	2.04
TYECRCIGEEKEMWMFGEKYARF [N15M]	1.43

Variant	protein stability index
TYECRCIGEEKEMWCFGEKYARF [N15C]	1.96
TYECRCIGEEKEMWEFGEKYARF [N15E]	2.37
TYECRCIGEEKEMWKFGEKYARF [N15K]	1.86
TYECRCIGEEKEMWYFGEKYARF [N15Y]	1.56
TYECRCIGEEKEMWVFGEKYARF [N15V]	2.3
TYECRCIGEEKEMWNFGEKYART [F23T]	1.87
TYECRCIGEEKEMWNFGEKYARI [F23I]	1.59
TYECRCIGEEKEMWNFGEKYARW [F23W]	2.64
TYECRCIGEEKEMWNFGEKYARL [F23L]	1.29
TYECRCIGEEKEMWNFGEKYARD [F23D]	3.5
TYGCRCIGEEKEMWNFGEKYARF [E3G]	2.14
TYYCRCIGEEKEMWNFGEKYARF [E3Y]	2.18
TYSCRCIGEEKEMWNFGEKYARF [E3S]	1.94
TYHCRCIGEEKEMWNFGEKYARF [E3H]	1.8
TYACRCIGEEKEMWNFGEKYARF [E3A]	2.23
TYECRCIGEEKEMWNFGEKYKRF [A21K]	2.8
TYECRCIGEEKEMWNFGEKYVRF [A21V]	2.37
TYECRCIGEEKEMWNFGEKYLRF [A21L]	2.19
TYECRCIGEEKEMWNFGEKYYRF [A21Y]	1.89
TYECRCIGEEKEMWNFGEKYRRF [A21R]	2.71
TYECRCIGEEKEMWNFGEKYQRF [A21Q]	2.04
TYECRCIGEEKEMWNFGEKYFRF [A21F]	2.02
TYECRCIGEEKEMWNFGEKYPRF [A21P]	3.79
TYECRCIGEAKEMWNFGEKYARF [E10A]	2.85
TYECRCIGEHKEMWNFGEKYARF [E10H]	2.49
TYECRCIGELKEMWNFGEKYARF [E10L]	2.25

Variant	protein stability index
TYECRCIGEPKEMWNFGEKYARF [E10P]	2.12
TYECRCIGEGKEMWNFGEKYARF [E10G]	1.86
TYECRCIGENKEMWNFGEKYARF [E10N]	1.83
TYECRCIGETKEMWNFGEKYARF [E10T]	1.43
TYECRCIGEEKEMWNKGEKYARF [F16K]	2.44
TYECRCIGEEKEMWNRGEKYARF [F16R]	2.14
TYECRCIGEEKEMWNIGEKYARF [F16I]	1.57
TYECRCIGEEKEMWNHGEKYARF [F16H]	2.26
TYECRCIGEEKEMWNEGEKYARF [F16E]	2.9
TYECRCIGEEKEMWNFGFKYARF [E18F]	2.24
TYECRCIGEEKEMWNFGHKYARF [E18H]	2.97
TYECRCIGEEKEMWNFGTKYARF [E18T]	1.67
TYECRCIGEEKEMWNFGLKYARF [E18L]	1.94
TYECRCIGEEKEMWNFGNKYARF [E18N]	1.79
TYECRCIGEEKEMWNFGAKYARF [E18A]	1.27
TYECRCIGEEKEMWNFGYKYARF [E18Y]	1.89
TYECRCIGEEKEMWNFGIKYARF [E18I]	2.3
TYECRCIGEEKEMWNFGVKYARF [E18V]	3
TYECRCIGEEKEMWNFGCKYARF [E18C]	2.41
TYECRCIGEEHEMWNFGEKYARF [K11H]	1.78
TYECRCIGEEFEMWNFGEKYARF [K11F]	1.53
TYECRCIGEEGEMWNFGEKYARF [K11G]	2.62
TYECRCIGEEMEMWNFGEKYARF [K11M]	1.88
TYECRCIGEEVEMWNFGEKYARF [K11V]	2.57
TYECRCIGEEKEMWNFGEKTARF [Y20T]	2.61
TYECRCIGEEKEMWNFGEKCARF [Y20C]	1.81

Variant	protein stability index
TYECRCIGEEKEMWNFGEKNARF [Y20N]	2.26
TYECRCIGEEKEMWNFGEKVARF [Y20V]	3.04
TYECRCIGEEKEMWNFGEKDARF [Y20D]	3.16
TYECRCIGEEKEMWNFGEKKARF [Y20K]	3.52
TYECRCIGEEKEMWNFGEKLARF [Y20L]	1.54
TYECRCIGEEKEMWNFGEKSARF [Y20S]	3.24
TYECRCIGEEKEMWNFGEKYAFF [R22F]	2.23
TYECRCIGEEKEMWNFGEKYASF [R22S]	2.29
TYECRCIGEEKEMWNFGEKYATF [R22T]	2.49
TYECRCIGEEKEMWNFGEKYAYF [R22Y]	1.81
TYECRCIGEEKEMWNFGEKYAQF [R22Q]	2.92
TYECRCIGEEKEMWNFGEKYAPF [R22P]	1.92
TYECRCIGEEKEMWNFGEKYAHF [R22H]	2.82
TYECRCIGEEKEQWNFGEKYARF [M13Q]	1.71
TYECRCIGEEKEHWNFGEKYARF [M13H]	2.24
TYECRCIGEEKEYWNFGEKYARF [M13Y]	1.56
TYECRCIGEEKEWWNFGEKYARF [M13W]	3.09
TYECRCIGEEKEIWNFGEKYARF [M13I]	2.07
TYECRCIGEEKETWNFGEKYARF [M13T]	2.18
TYECRCIGEEKEDWNFGEKYARF [M13D]	2.19
TYECRCIGEEKEFWNFGEKYARF [M13F]	1.23
